Measured values: patent US8999342B2, “Anti-fibroblast activation protein antibodies and methods and uses thereof” (Ludwig Institute for Cancer Research, Ltd., priority 2009, dated 2015)
“Also recorded” adds a separate entry of the source.

Columns and labels:
FAP [1] = target: T1, FAP (Homo sapiens, UniProt Q12884); conditions: cited from earlier work
T1 sequence (Q12884 1-760): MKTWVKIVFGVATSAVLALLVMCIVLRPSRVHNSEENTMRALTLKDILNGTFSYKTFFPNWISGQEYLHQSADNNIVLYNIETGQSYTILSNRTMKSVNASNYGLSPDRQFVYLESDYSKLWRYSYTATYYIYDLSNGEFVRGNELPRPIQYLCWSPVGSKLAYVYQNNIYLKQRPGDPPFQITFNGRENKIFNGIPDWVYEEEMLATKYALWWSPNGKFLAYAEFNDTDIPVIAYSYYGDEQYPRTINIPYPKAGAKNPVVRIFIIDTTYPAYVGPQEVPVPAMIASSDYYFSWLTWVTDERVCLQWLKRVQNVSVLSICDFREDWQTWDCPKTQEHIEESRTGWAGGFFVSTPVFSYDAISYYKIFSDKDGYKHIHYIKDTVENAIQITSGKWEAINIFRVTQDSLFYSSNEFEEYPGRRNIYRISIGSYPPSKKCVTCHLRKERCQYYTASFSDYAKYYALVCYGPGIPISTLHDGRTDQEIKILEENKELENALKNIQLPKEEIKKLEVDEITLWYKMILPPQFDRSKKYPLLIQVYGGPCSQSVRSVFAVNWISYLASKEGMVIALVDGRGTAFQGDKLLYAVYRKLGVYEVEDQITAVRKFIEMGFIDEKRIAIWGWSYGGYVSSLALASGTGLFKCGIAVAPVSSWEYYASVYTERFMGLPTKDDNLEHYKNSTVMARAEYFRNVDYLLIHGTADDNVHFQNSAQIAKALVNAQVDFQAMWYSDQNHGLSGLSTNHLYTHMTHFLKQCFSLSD

FAP [2] = target: T1, FAP; assay: Antibody mediated down-regulation of FAP expression; assay type: cell-based; design: expressed in transfected cells; host or cells: HT1080 (FAP-transfected); conditions: FAP-transfected tumor cell lines (HT1080FAP), over night incubation, F19 staining
Protocol: For detection of loss of FAP expression, sub-confluent HT1080FAP cultures were trypsinized, washed with PBS and resuspended in RPMI, 10% FBS at 5×10^5 cells and 0.5 ml per well seeded in 12 well cell culture plates and the indicated concentration of ESCHIgG was added. After over night incubation, cells were trypsinized washed and stained with 10 ug/ml F19 followed by FITC-conjugated polyclonal goat anti-mouse. Fluorescence intensity of the cells was analyzed by flow cytometry. % FAP expression was calculated (100/(signal 0 ug/ml ESC11IgG−background signal))*(signal with ESC11IgG−backgroundsignal). One representative of three independent experiments is shown.

HT1080FAP cells = assay: Internalization of FAP-antibody complexes by fluorescence microscopy; assay type: cell-based; conditions: DyLight 488 labelled antibody, 37° C., two hours, acidic wash
Protocol: HT1080FAP cells were incubated with fluorescence labelled anti-FAP antibody Esc11 DYLIGHT® […] (flurorochrome conjugated antibody, ThermoScientific). […] When cells were warmed up to 37° C., rapid internalisation of FAP-Esc11 complexes could be detected with cytoplasmatic spots and vesicular accummulation (FIG. 11B).
Methods: HT1080FAP were grown on fibronectin coated glas slides over night. The cells were then treated with DYLIGHT® (Thermo Scientific) labeled ESC11IgG at either 4° C. or 37° C. for indicated time points. The cover slides were then mounted with flouromount for fluorescence microscopy. ESC11 DYLIGHT® 488 was detected at extention wavelaength of 488 nm and an emission of 518 nm. The results are depicted in FIG. 11.

FAP [3] = target: T1, FAP; assay: Competition assay on HT1080hFAP cells by flow cytometry; assay type: binding; design: expressed in transfected cells; host or cells: HT1080 (FAP-transfected); conditions: IgG at 5 ug/ml before ESC11/ESC14 Fab fragments; HT1080FAP cells, 4° C.
Protocol: For measuring the competitive binding of ESC11 and ESC14, Fab fragments were titered on HT1080hFAP cells and binding was determined by flow cytometry. The concentration resulting in 90% of the maximal binding was used for the competition assay. HT1080FAP were incubated with the indicated antibodies at 5 ug/ml for 20 min at 4° C., then the ESC11-/ESC14 Fab fragments or PBS added at the pre-determined concentrations and incubated for 20 min at 4° C. Cells were washed once with PBS at 4° C. and fixed with 2% PFA on ice. Bound Fab fragment was detected by the myc-tag with biotinylated anti-myc and PE conjugated streptavidin. Cells were then analyzed by flow cytometry as described.

FAP-expressing cells = assay: Attachment assay to ECM proteins; assay type: cell-based; conditions: antibodies 10 ug/ml, 30 min preincubation
Protocol: Ninety-six-well microtiter plates (MAXISORP®, Nunc) were coated with indicated proteins at a concentration of 50 ug/ml and incubated over night at 4° C. Plates were washed three times with PBS and then blocked with 1% BSA for 60 min at 37° C. Cells were preincubated for 30 min with indicated antibodies at a final concentration of 10 ug/ml and then added to the coated plates. After 60 min, plates were washed with PBS to remove non adherent cells. Attached cells were stained using cristal violet and lysed by addition of Isopropanol with 0.4M HCl at a final volume of 75 ul/well. OD560 was measured on a ELISA reader.

[4] = tested on: mock-transfected Hek293 cells; assay: Detection of apoptotic cells by Annexin V staining, mock-transfected cells; assay type: cell-based
Protocol: Detection of Apoptotic Cells by Annexin V Staining.
FAP- and mock-transfected Hek293 cells were incubated in DMEM supplemented with 10% FBS in the presence of indicated amount of antibodies at RT. Control samples were either incubated in the absence of antibodies or at 4° C. in the presence of antibodies. After 60 min, cells were washed and stained with Propidium Iodide (Sigma) and Annexin V (Roche) following the manufacturer's instructions and the percentage of apoptosis was determined using flow cytometry.

[5] = target: T2, dipeptidylpeptidase activity of FAP (Homo sapiens, UniProt Q12884); assay: Fluorogenic dipeptidyl peptidase activity assay (Ala-Pro-AFC); assay type: biochemical; conditions: 30 μg/ml IgGs added to extracts of human AF; Ala-Pro-AFC substrate
T2 construct: native FAP expressed on human AF; endogenous in cells
T2 sequence (Q12884 1-760): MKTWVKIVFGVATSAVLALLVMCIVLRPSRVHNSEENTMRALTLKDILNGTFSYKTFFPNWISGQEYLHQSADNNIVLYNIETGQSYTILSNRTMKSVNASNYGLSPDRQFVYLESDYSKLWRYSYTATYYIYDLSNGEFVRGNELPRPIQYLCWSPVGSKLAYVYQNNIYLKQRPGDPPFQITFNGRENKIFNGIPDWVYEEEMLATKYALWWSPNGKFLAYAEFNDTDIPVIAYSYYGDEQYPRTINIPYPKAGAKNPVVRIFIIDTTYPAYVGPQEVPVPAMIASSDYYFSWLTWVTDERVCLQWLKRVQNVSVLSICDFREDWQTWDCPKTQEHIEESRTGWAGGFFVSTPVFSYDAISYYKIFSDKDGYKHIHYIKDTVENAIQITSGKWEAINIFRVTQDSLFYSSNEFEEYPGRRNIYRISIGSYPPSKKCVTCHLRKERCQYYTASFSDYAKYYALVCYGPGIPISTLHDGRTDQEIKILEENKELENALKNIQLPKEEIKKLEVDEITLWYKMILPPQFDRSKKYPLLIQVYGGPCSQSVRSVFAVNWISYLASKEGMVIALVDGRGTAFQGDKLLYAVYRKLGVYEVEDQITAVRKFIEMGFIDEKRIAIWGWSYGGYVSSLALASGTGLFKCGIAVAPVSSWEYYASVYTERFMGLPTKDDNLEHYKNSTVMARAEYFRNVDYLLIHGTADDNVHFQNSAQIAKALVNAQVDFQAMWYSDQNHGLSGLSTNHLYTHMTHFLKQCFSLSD
Protocol: Fluorogenic Dipeptidyl Peptidase Activity Assay.
The diluted extracts were incubated with 0.5 mM Ala-Pro-AFC in 96-well plates at 37° C. and release of free AFC was monitored over time on a fluorescence reader (Victor Wallac, Perkin Elmer), using a 395 nm excitation/530 nm emission filter set. Dipeptidyl peptidase activity was determined from the slope of the fluorescence readings, after subtraction of background activity from a FAP negative sample.

[6] = tested on: HEK293 cells stably transfected with mouse FAP; assay: Detection of apoptotic cells by Annexin V staining, FAP-transfected cells; assay type: cell-based
CD26 = target: T3, CD26 (Homo sapiens, UniProt P27487); assay: Binding specificity by ELISA on cell lysates, CD26; conditions: HEK293 huCD26+ lysates
T3 construct: expressed in transfected cells; host or cells: HEK293 c-18 (ATCC CRL-10852), pEAK 8 vector; cell lysate coated on the plate
T3 sequence (P27487 whole entry): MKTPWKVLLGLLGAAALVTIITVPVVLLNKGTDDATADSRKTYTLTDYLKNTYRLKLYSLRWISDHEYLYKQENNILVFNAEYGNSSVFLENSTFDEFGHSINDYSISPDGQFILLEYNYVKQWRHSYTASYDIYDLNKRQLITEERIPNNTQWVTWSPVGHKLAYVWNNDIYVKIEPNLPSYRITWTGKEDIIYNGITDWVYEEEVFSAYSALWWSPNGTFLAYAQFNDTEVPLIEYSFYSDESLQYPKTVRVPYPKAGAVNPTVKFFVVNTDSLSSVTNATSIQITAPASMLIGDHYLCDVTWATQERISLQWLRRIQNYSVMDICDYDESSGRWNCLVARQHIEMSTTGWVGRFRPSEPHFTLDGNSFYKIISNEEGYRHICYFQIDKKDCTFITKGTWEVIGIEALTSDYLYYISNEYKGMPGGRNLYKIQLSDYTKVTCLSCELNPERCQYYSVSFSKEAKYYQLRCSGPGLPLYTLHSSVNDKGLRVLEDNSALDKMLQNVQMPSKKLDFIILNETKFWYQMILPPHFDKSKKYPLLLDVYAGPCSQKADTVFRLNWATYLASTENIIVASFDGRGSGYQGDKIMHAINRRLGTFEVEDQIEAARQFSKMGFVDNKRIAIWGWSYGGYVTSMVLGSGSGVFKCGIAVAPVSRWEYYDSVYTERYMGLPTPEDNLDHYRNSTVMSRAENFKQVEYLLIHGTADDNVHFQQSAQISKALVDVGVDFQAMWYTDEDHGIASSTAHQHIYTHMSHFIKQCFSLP
Protocol: FIG. 3: Specificity of Fabs ESC11 and ESC14. A. ELISA of Fabs (100 nM) binding to cell-lysate-coated plates. HT1080 FAP^+ (black bars), HT1080 (white bars), HEK293 huCD26^+ (striped bars), HEK293 muFAP^+ (grey bars), HEK293 mock transfected line (hatched bars). B. FACS analysis of Fab ESC11 (black line), ESC14 (grey line), and a non-binding control Fab (filled) on HT1080 FAP^+ cells (left) and 293 muFAP^+ cells (right)
Screening of Supernatants by ELISA and Flow Cytometry.
Supernatants of the output libraries after each selection round, and supernatants of individual bacterial clones after rounds three, four, and five were screened for FAP-binding phage by ELISA. Ninety-six-well microtiter plates (MAXISORP® Nunc) were coated with cell extracts cell extracts from HEK293 huFAP, HEK293 huCD26, HEK293 muFAP, or mock-transfected HEK293, blocked with 5% milk powder in PBS, incubated with phage-containing supernatants for 1 hr at room temperature and developed using an anti-M13-HRP conjugated antibody. […] Bound Fab antibody was detected with anti-myc tag antibody 9E10, followed by an anti-mouse immunoglobulin-PE conjugate. For competition assays, Fab antibodies were detected using biotinylated anti-myc tag 9E10, followed by strep-PE.

Molecule: Sibrotuzumab: humanized version of F19
- Safety and tolerability (FAP [1]; patients, phase I and phase II trials): safe and well tolerated
- Accumulation at the tumor area (FAP [1]; trace-labelling with ^131I, imaging analysis): specific accumulation
- Anti-tumor or therapeutic activity (FAP [1]; unconjugated antibody, patients): no anti-tumor or any therapeutic activity

B1: ESC11 IgG1: ESC11 variable domains in full human IgG1 format; heavy chain H to Q at position 1 (SEQ ID NO: 2) (antibody, V domains shown)
VH: QVQLQESGPGLVKPSETLSLTCTVSGGSISSNNYYWGWIRQTPGKGLEWIGSIYYSGSTNYNPSLKSRVTISVDTSKNQFSLKLSSVTAADTAVYYCARGARWQARPATRIDGVAFDIWGQGTMVTVSS
VL: ETTLTQSPGTLSLSPGERATLSCRASQTVTRNYLAWYQQKPGQAPRLLMYGASNRAAGVPDRFSGSGSGTDFTLTISRLEPEDFAVYYCQQFGSPYTFGQGTKVEIK
- Down-regulation of FAP expression (FAP [2]): down-regulation of FAP expression; also recorded: dose-dependent reduction of FAP
- Internalisation of FAP-antibody complexes (HT1080FAP cells): most of the antibody had internalized
- Competition for FAP binding (FAP [3]): cross-inhibition

B2: ESC11 Fab fragment: fully human anti-FAP Fab from phage library; VH SEQ ID NO: 1, VL SEQ ID NO: 3 (antibody, listed as Homo sapiens, V domains shown)
VH: HVQLQESGPGLVKPSETLSLTCTVSGGSISSNNYYWGWIRQTPGKGLEWIGSIYYSGSTNYNPSLKSRVTISVDTSKNQFSLKLSSVTAADTAVYYCARGARWQARPATRIDGVAFDIWGQGTMVTVSS
VL: ETTLTQSPGTLSLSPGERATLSCRASQTVTRNYLAWYQQKPGQAPRLLMYGASNRAAGVPDRFSGSGSGTDFTLTISRLEPEDFAVYYCQQFGSPYTFGQGTKVEIK
- Down-regulation of FAP expression (FAP [2]): could not been observed

B3: ESC14: anti-FAP antibody clone ESC14, format (Fab or IgG) given by the context of the place (antibody, V domains shown)
VH: EVQLVQSGAEVKKPGASVKVSCKASGYTFTSYGISWVRQAPGQGLEWMGWISAYNGNTNYAQKLQGRVTMTTDTSTSTAYMELRSLRSDDTAVYYCARDWSRSGYYLPDYWGQGTLVTVSS
VL: DVVMTQSPLSLPVTLGQPASISCRSSQSLLHSNGYNYLDWYLQRPGQSPHLLIFLGSNRASGVPDRFSGSGSGTDFTLKISRVEAEDVGIYYCMQALQTPPTFGQGTKVEIK
- Attachment of FAP-expressing cells to ECM proteins (matrigel, type I collagen) (FAP-expressing cells): significant inhibition
- Induction of apoptosis in mock-transfected cells [4]: not altered at all
- Down-regulation of FAP expression (FAP [2]): rapid FAP down-regulation
- Effect on DPP (protease) activity of FAP [5]: no direct influence
- Induction of apoptosis in the cold ([6]; 4° C.): could not be induced
- Induction of apoptosis ([6]; HEK293 stably transfected with mouse FAP, RT, 60 min, Annexin V): underwent apoptosis; also recorded: Induction of apoptosis
- Cross-reaction with CD26 (CD26): no binding

B4: ESC14 Fab fragment: fully human anti-FAP Fab from phage library; VH SEQ ID NO: 7, VL SEQ ID NO: 8 (antibody, listed as Homo sapiens, V domains shown)
VH: EVQLVQSGAEVKKPGASVKVSCKASGYTFTSYGISWVRQAPGQGLEWMGWISAYNGNTNYAQKLQGRVTMTTDTSTSTAYMELRSLRSDDTAVYYCARDWSRSGYYLPDYWGQGTLVTVSS
VL: DVVMTQSPLSLPVTLGQPASISCRSSQSLLHSNGYNYLDWYLQRPGQSPHLLIFLGSNRASGVPDRFSGSGSGTDFTLKISRVEAEDVGIYYCMQALQTPPTFGQGTKVEIK
- Down-regulation of FAP expression (FAP [2]): could not been observed

B5: ESC14 IgG1: ESC14 variable domains cloned into a full human IgG1 format (antibody, V domains shown)
VH: EVQLVQSGAEVKKPGASVKVSCKASGYTFTSYGISWVRQAPGQGLEWMGWISAYNGNTNYAQKLQGRVTMTTDTSTSTAYMELRSLRSDDTAVYYCARDWSRSGYYLPDYWGQGTLVTVSS
VL: DVVMTQSPLSLPVTLGQPASISCRSSQSLLHSNGYNYLDWYLQRPGQSPHLLIFLGSNRASGVPDRFSGSGSGTDFTLKISRVEAEDVGIYYCMQALQTPPTFGQGTKVEIK
- Down-regulation of FAP expression (FAP [2]): down-regulation of FAP expression; also recorded: dose-dependent reduction of FAP
- Competition for FAP binding (FAP [3]): cross-inhibition
